{"source": "the supplement of paper PMC12764529", "note": "± gives the half width of the 95% confidence interval."}
{"experiment": "folding stability dG unfold (combined trypsin and chymotrypsin); higher = more stable", "procedure": "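Folding stability of de novo designed mini-proteins (<80 aa, no Cys; designed by TrROS, TrMRF, ProteinMPNN and the joint model) was measured by cDNA display proteolysis with trypsin and chymotrypsin. Each protease was used at 11 concentrations in a threefold dilution series plus a no-protease condition. K50 was inferred by Bayesian fitting of sequencing counts, and dG unfold was derived against a sequence-predicted unfolded-state K50 (Tsuboyama et al. method). Sequences shown include variable-length N-terminal GS-type padding (SAGGSAGG...) inside a display construct carrying a PA tag. Rows were kept only if the AF2 dimer inter-PAE was >15, to exclude likely homo-oligomers.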", "units": {"folding stability dG unfold": "kcal/mol"}}
{"sequence": "SAGGTIKDLLRELPGFDSVEVDEDSGVIYVRNPDRYYKIEIPVQKQPDDDGKDRPITPVKIEPYPPNSAGGS [r16_65_TrROS]", "folding stability dG unfold": "< -1"}
{"sequence": "SAGGTVEELLRRVPFVEEAVVDVDSGVAYVRVPDRYYVVRVPLVAEPDEDGVLRPRTPVEVEPFAPESAGGS [r16_65_TrMRF]", "folding stability dG unfold": "< -1"}
{"sequence": "SAGIKIEWDPDEGYIKIEMPYDSPAEANENIQEIHEKFGLKDVTAERDPNNGTVEHTIRIKNPEALKELSAG [r5_598_TrROS]", "folding stability dG unfold": "< -1"}
{"sequence": "SAGITIDELRNQPPKKRVTEVNWNPNQGNYRVEVVRPDPDGKPKKHEYEVNSPQQIRDKLKNGFDYIHISAG [r5_905_TrROS]", "folding stability dG unfold": "< -1"}
{"sequence": "SAGMQTKTLAETKENGKITVTTLTTTESGEETTVTETIEVGPVPIPPLTVEVRLRPDGRLEFEYHIPLSAGG [r19_172_JUSTAS]", "folding stability dG unfold": "-0.861 ± 0.51"}
{"sequence": "SAGMTTTETIEFPDSTTATVTSVEEGPTPNGTPVTTRTVTVTTYTPLRDADGKLLGEVPQTSTSTLTVASAG [r5_476_JUSTAS]", "folding stability dG unfold": "< -1"}
{"sequence": "SAGMVIPATSEEEAEAFAKELGPETGYEVEIEKVPADEPVEDVDPNDILVVLPESGTVYRIHVRRPDEESAG [r5_173_TrMRF]", "folding stability dG unfold": "< -1"}
{"sequence": "SAGSASPVVLKLTDPSSDKTYLVEVEVPEEEATWTLRDPSNGKEVEKVKMTLEELYAELKKKGLNPEPLSAG [r5_291_JUSTAS]", "folding stability dG unfold": "< -1"}
{"sequence": "SAGSPADVVPLEIPFVTEDGSRVRATLLYDPATGEVTVPIETEDPALGRRAAAFARRLAEELGAPDVRPSAG [r5_99_TrMRF]", "folding stability dG unfold": "< -1"}
{"sequence": "SAGYELKILKAEVKDGEIDIPILHPDGRPSTARIKVELVEGEDGIPRPVLKIEIPEEELKNSIPPELLKSAG [r5_462_TrMRF]", "folding stability dG unfold": "< -1"}
{"sequence": "SAMLVVKNKKTKKPIEIKIDPSMTPEEIKKKIEKLPDIPEEQKKEVEEAIELYIKLLENPELAKKFEKESAG [r14_732_TrMRF]", "folding stability dG unfold": "< -1"}
{"sequence": "SAPYIRKVTYTTTFYPPDGTPVQSTKPTTEPVDPAEKDTTTTSTTALPDGGSVTTTSTTTVEPAEPALLSAG [r14_268_JUSTAS]", "folding stability dG unfold": "< -1"}
{"sequence": "SASPLVPVETEVLEEETLPDGTLRILTRRTVGDTTILDVRDRGPGGEILRESSSVDTSSNTTTRDVSVLSAG [r14_189_JUSTAS]", "folding stability dG unfold": "< -1"}
{"sequence": "SGINTEYTVTSVGPAGTPVTTELKTKIGNKEYSLTRTYQDPSGSVRLVNWKITSSPSGSSTISETVSPLPSA [r9_255_JUSTAS]", "folding stability dG unfold": "< -1"}
{"sequence": "SGKVVGEKTYPVSDGSEGPAKATRDPDSLTFTITNKKGEVIKTIKVPKNAGVEKVFDIKVSPDEFKGLNLSA [r9_215_JUSTAS]", "folding stability dG unfold": "< -1"}
{"sequence": "SGSMVVVPESDLEAAIATARALVAAGEDTLLFFSPEAREAVQRAVPEVRVEPVPGVPPTPPRPESVARLRSA [r9_639_JUSTAS]", "folding stability dG unfold": "< -1"}
{"sequence": "SMELLEAVKKGVKTVTVLLKPGDEEKVKLAAELPVNIVLKASPEISEEVFKKIPGINLTEVKPLSPEELPSA [r9_671_JUSTAS]", "folding stability dG unfold": "< -1"}
{"sequence": "SMITPEDLEALKAAGVELVSRDPNNRVTLFDPATNTPIELEVEEVPPPPPVTFPGNGPSVEERRAWLERRSA [r9_649_JUSTAS]", "folding stability dG unfold": "< -1"}
{"sequence": "SMTIEELLKKHPNLSAEELAKLIADELKKKLPPGAKITVTVEEKDGKLVLKVEVEVNGKKITIELEIELKSA [r9_805_TrROS_Hall]", "folding stability dG unfold": "> 6"}
{"sequence": "SMTITLEKTLPDGSKVTITIPITKVPGKPLYKATVTVTTTKPGGTPSSKTYTFDFTSEEEAVEKAKEILASA [r9_337_JUSTAS]", "folding stability dG unfold": "> 6"}
{"sequence": "SPPYRATVEMEAPNGEPIGEEEFPIKPGKNLMFMMPAPARVRIEIEDPDEGEPREQEYDPRSGMLHFPLKSA [r9_272_TrROS]", "folding stability dG unfold": "< -1"}
{"sequence": "SRFRISVQHDGKPIDRAEVQDAIHDLMQESGRPITFEELADELAERPNYSVSIERWNPPGKPKGTRTIRVSA [r9_1045_TrROS]", "folding stability dG unfold": "< -1"}
{"sequence": "SSITFPVPKEEKEPDPDGDPHPRREPKPVPIPPDAIRDQIYNMIRTELRDAGLPDMTEEDIDDPEFIDRLSA [r9_263_TrROS]", "folding stability dG unfold": "< -1"}
{"sequence": "SSPPPSITVKSISREPATGTVTIPTSHPSGKHISVEWRSPDGTVTVVPPDKPTATLPAAPDWTLTKISVGSA [r9_113_JUSTAS]", "folding stability dG unfold": "< -1"}
